{"source": "patent US12404312B2", "about": "“Engineered VEGF variants for retinal neuroprotection, promotion of axon growth and axon regeneration” (Massachusetts Eye and Ear Infirmary, priority 2018, dated 2025)", "molecules": {"B1": {"name": "eVEGF-53: engineered covalently linked dimer of VEGF121 isoform with a 53 amino acid glycine-rich linker connected to a GPI anchor (SEQ ID NO: 2) (protein)", "chain": "MNFLLSWVHWSLALLLYLHHAKWSQAAPMAEGGGQNHHEVVKFMDVYQRSYCHPIETLVDIFQEYPDEIEYIFKPSCVPLMRCGGCCNDEGLECVPTEESNITMQIMRIKPHQGQHIGEMSFLQHNKCECRPKKDRARQEKCDKPRRGGSSGGSSGGSGGGTGGGSGAPMAEGGGQNHHEVVKFMDVYQRSYCHPIETLVDIFQEYPDEIEYIFKPSCVPLMRCGGCCNDEGLECVPTEESNITMQIMRIKPHQGQHIGEMSFLQHNKCECRPKKDRARQEKCDKPRRGNGNGNGNGNGNGNEQKLISEEDLKLAAAGNGNGNGNGNGNGNGDGNGGALCNGAGFATPVTLALVPALLATFWSLL"}, "B2": {"name": "VEGF189: natural VEGF189 isoform with strong heparin-binding domain, constructed with a myc-tag (SEQ ID NO: 3), tested for comparison (protein)", "chain": "MNFLLSWVHWSLALLLYLHHAKWSQAAPMAEGGGQNHHEVVKFMDVYQRSYCHPIETLVDIFQEYPDEIEYIFKPSCVPLMRCGGCCNDEGLECVPTEESNITMQIMRIKPHQGQHIGEMSFLQHNKCECRPKKDRARQEKKSVRGKGKGQKRKRKKSRYKSWSVPCGPCSERRKHLFVQDPQTCKCSCKNTDSRCKARQLELNERTCRCDKPRRKLGNGNGEQKLISEEDLGN", "modifications": "myc tag"}, "B3": {"name": "eVEGF-38: engineered covalently linked dimer of VEGF121 isoform with a 38 amino acid glycine-rich linker connected to a GPI anchor (SEQ ID NO: 1) (protein)", "chain": "MNFLLSWVHWSLALLLYLHHAKWSQAAPMAEGGGQNHHEVVKFMDVYQRSYCHPIETLVDIFQEYPDEIEYIFKPSCVPLMRCGGCCNDEGLECVPTEESNITMQIMRIKPHQGQHIGEMSFLQHNKCECRPKKDRARQEKCDKPRRGGSSGGSSGGSGGGTGGGSGAPMAEGGGQNHHEVVKFMDVYQRSYCHPIETLVDIFQEYPDEIEYIFKPSCVPLMRCGGCCNDEGLECVPTEESNITMQIMRIKPHQGQHIGEMSFLQHNKCECRPKKDRARQEKCDKPRRGNGNGEQKLISEEDLKLAAAGNGGNGNGNGDGNGALCNGAGFATPVTLALVPALLATFWSLL"}}, "key": {"VEGFR2": {"biological_target": "T1, VEGFR2 (Homo sapiens, UniProt P35968)", "T1 construct": "Human retinal endothelial cells (hREC) that express VEGFR2; endogenous in cells; host or cells: human retinal endothelial cells (hREC)", "T1 sequence (P35968 20-1356)": "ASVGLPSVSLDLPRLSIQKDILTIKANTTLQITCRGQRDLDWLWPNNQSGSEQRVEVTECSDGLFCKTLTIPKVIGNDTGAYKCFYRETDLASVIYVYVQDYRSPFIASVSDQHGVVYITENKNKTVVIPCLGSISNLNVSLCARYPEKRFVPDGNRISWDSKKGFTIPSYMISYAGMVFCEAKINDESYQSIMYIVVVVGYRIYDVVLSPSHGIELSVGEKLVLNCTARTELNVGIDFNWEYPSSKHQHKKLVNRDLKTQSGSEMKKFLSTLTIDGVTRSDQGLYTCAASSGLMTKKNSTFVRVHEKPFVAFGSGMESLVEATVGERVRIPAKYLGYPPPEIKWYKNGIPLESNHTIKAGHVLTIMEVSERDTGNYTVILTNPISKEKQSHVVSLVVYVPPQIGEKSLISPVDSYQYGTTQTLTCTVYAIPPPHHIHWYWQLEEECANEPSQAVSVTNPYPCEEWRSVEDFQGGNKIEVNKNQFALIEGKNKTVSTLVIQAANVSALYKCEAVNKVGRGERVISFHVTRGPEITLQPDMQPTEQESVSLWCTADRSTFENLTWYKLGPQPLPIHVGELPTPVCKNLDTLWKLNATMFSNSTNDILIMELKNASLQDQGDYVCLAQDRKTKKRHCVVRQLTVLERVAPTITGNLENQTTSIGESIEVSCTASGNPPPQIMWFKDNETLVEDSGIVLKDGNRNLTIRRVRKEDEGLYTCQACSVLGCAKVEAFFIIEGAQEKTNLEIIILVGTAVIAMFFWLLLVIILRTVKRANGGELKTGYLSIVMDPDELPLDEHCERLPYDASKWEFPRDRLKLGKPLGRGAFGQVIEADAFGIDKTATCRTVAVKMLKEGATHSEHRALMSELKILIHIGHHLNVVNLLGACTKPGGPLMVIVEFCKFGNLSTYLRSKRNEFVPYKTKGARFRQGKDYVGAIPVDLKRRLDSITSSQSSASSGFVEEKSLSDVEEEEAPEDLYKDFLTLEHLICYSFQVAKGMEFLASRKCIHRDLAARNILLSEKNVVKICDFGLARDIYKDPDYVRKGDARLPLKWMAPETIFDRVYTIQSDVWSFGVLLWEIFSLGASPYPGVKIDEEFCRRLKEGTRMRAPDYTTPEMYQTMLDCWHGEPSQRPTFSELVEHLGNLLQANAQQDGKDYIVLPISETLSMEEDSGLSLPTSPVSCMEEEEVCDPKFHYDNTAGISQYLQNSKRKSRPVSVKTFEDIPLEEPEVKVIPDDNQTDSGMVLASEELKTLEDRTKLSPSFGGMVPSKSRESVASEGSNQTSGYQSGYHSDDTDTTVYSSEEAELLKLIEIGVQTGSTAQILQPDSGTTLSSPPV", "test": "VEGFR2 activation (p-VEGFR2 western blot) in transfected hREC", "assay_type": "cell-based", "conditions": "hREC transfected with expression construct; lysate at 24 and 48 hours post transfection; vs GFP control", "experimental": "Human retinal endothelial cells (hREC) that express VEGFR2 were transfected with eVEGF-38 or eVEGF-53, or VEGF189, or control GFP (ctr) expression construct and total cell lysate was collected at 24 and 48 hours post transfection. Activation of VEGFR2 was determined by the levels of VEGFR2 phosphorylation (p-VEGFR2). Data=mean±SD, **P<0.01 by unpaired t-test, n=3 independent western blot assays.\n(§1) eVEGF-38 and eVEGF-53 localize to the cell membrane and comprise myc-tags. VEGF189 was constructed with a myc-tag. The constructs were packaged into adeno-associated virus serotype 2 (AAV2) for efficient transduction and expression in human microvascular endothelial cells (hREC) and RGC. Transgenes expression was measured by western blot, qPCR and immunostaining. In hREC, VEGFR2, VCAM-1, E-selectin and tissue factor expression were measured by immunostaining or qPCR. VEGFR2 signaling, axon length, and synapse formation in RGC were measured by immunostaining. RGC survival was measured by TUNEL staining and intracellular [Ca2+] was measured using fura2/AM calcium imaging."}, "primary mouse RGC [1]": {"system": "primary mouse RGC", "test": "Survival of primary mouse RGC in culture", "assay_type": "cell-based", "conditions": "control 22% survival, P<0.001", "experimental": "FIG. 3A is a bar graph showing the results from experiments using primary mouse RGC isolated from P3 pups were transduced with different AAVs to overexpress eVEGF-38, eVEGF-53, VEGF189, or the control GFP on the day of isolation (day 0), or treated with exogenous recombinant VEGF121 protein on day 2. The number viable RGC was determined by immunostaining for beta III tubulin while total cell number per field was determined by DAPI staining on day 3 of culture.\nFIG. 3B is a bar graph showing that the majority of the viable RGC were expressing the eVEGF-38, eVEGF-53, or VEGF189, whereas the GFP-expressing RGC were not protected in culture. Data=mean±SD, ***P<0.001 by unpaired t-test, n=15 different fields total (5 fields/well) from three independent wells of primary RGC.\nas §1"}, "RGC": {"system": "RGC", "test": "Intracellular [Ca2+] in RGC by fura2/AM calcium imaging", "assay_type": "cell-based, mouse", "conditions": "upon carbachol and NMDA stimulation; compared to control", "experimental": "as §1"}, "primary mouse RGC [2]": {"system": "primary mouse RGC", "test": "H2O2-induced cell death of primary mouse RGC (TUNEL staining)", "assay_type": "cell-based", "conditions": "P<0.05", "experimental": "as §1, with “Cell death was analyzed by TUNEL staining” for “eVEGF-38”, “transgene expression by immunostaining. Percentage of viable RGC was determined by: (TUNEL-negative RGC with transgenes expression)/(total” for “eVEGF-53 localize to the”, “number by DAPI staining). […]” for “membrane and comprise myc-tags. VEGF189 was constructed with a myc-tag.”"}, "primary RGC": {"system": "primary RGC", "test": "Synapse formation / synaptophysin expression in primary RGC", "assay_type": "cell-based, mouse", "conditions": "for synaptic vesicle marker synaptophysin in axons and neurites: primary RGC overexpressing the transgene", "experimental": "as §1"}, "primary mouse RGC [3]": {"system": "primary mouse RGC", "test": "Axon and neurite formation in primary mouse RGC", "assay_type": "cell-based", "conditions": "for average number of branch points of neurite per RGC / average axon length per RGC / average number of neurites per RGC / percentage of RGC with axons longer than 3× cell body length: primary RGC; for average number of branch points of neurite per RGC: compared to control; for average axon length per RGC / average number of neurites per RGC / percentage of RGC with axons longer than 3× cell body length: compared to the GFP control", "text": "FIG. 6 is a series of photomicrographs showing correlative fluorescence and electron microscopy showing extra long axons (>1400 μm) from some of the eVEGF-38 overexpressing primary RGC. Green arrows, eVEGF-38 overexpressing cells; blue arrows, untransduced primary mouse RGC.\nFIGS. 7A and 7B are a series of bar graphs and dot plots showing that VEGFR2 signaling is required for the formation of long axons by primary RGC overexpressing eVEGF-38, eVEGF-53, and VEGF189. […] Recombinant VEGF121 protein was added to a final concentration of 2.5 nM. […] Labels: 38, eVEGF-38; 53, eVEGF-53; 189, VEGF189; UT, untreated. Data=mean±SD, n=15 fields from 3 independent wells per group, *P<0.05, **P<0.01, ***P<0.001, one-way ANOVA.\nas §1"}, "[4]": {"system": "human microvascular endothelial cells (hREC)", "test": "Pro-inflammatory markers (VCAM-1, E-selectin, tissue factor) in hREC by immunostaining or qPCR", "assay_type": "cell-based", "conditions": "compared with GFP/AAV2 control, p<0.05", "experimental": "as §1"}, "primary mouse RGC [5]": {"system": "primary mouse RGC", "test": "Gene expression analysis of primary mouse RGC", "assay_type": "cell-based", "conditions": "overexpressing primary mouse RGC; vs GFP control", "text": "FIG. 9 is a series of bar graphs showing that overexpression of eVEGF-38 in primary RGC suppresses genes that are associated with cell death and suppression of axon formation, but induces genes that are associated with axon growth and neuronal function. Label: 38, eVEGF-38; Ctr, GFP control. Data=mean±SD, n=3 independent wells of primary RGC, *P<0.05, **P<0.01, ***P<0.001 by unpaired t-test.\nFurthermore, eVEGF-38 and eVEGF-53 chimeric polypeptides and VEGF189 expression enhanced axons and neurites formation of primary mouse RGCs (FIGS. 5A-C, FIG. 6, and FIGS. 7A-B), supported synaptogenesis and likely neuronal function (FIG. 8), which are consistent with the role of VEGF in promoting neurogenesis and neuronal function in vitro and in vivo. […] Together, the data support overexpression of eVEGF-38, eVEGF-53 and the natural VEGF189 isoform in RGC promotes cell-autonomous RGC survival, axon growth and regeneration, and neuronal function, and is useful and a therapeutic agent for treatment of glaucoma. The chimeric polypeptides can be used therapeutically via a gene therapy approach (AAV) for eVEGF-38, eVEGF-53 and VEGF189. Activity is tested in animal models of glaucoma and optic nerve injury/regeneration."}}, "data": [{"molecule": "B1", "values": [{"measurement": "VEGFR2 activation by levels of VEGFR2 phosphorylation (p-VEGFR2)", "setting": "VEGFR2", "value": "can sustain VEGFR2 activation in a cell autonomous fashion"}, {"measurement": "RGC survival", "setting": "primary mouse RGC [1]", "value": 48, "unit": "%"}, {"measurement": "intracellular [Ca2+]", "setting": "RGC", "value": "decreased"}, {"measurement": "increased RGC survival upon H2O2 treatment compared to control", "setting": "primary mouse RGC [2]", "value": 15, "unit": "%"}, {"measurement": "synaptic vesicle marker synaptophysin in axons and neurites", "setting": "primary RGC", "value": "also express synaptic vesicle marker synaptophysin"}, {"measurement": "average number of branch points of neurite per RGC", "setting": "primary mouse RGC [3]", "value": "significantly increase"}, {"measurement": "average axon length per RGC", "setting": "primary mouse RGC [3]", "value": "significantly increases"}, {"measurement": "average number of neurites per RGC", "setting": "primary mouse RGC [3]", "value": "significantly increases"}, {"measurement": "percentage of RGC with axons longer than 3× cell body length", "setting": "primary mouse RGC [3]", "value": "significantly increases"}]}, {"molecule": "B2", "values": [{"measurement": "pro-inflammatory markers", "setting": "[4]", "value": "increased"}, {"measurement": "VEGFR2 activation by levels of VEGFR2 phosphorylation (p-VEGFR2)", "setting": "VEGFR2", "value": "can sustain VEGFR2 activation in a cell autonomous fashion"}, {"measurement": "RGC survival", "setting": "primary mouse RGC [1]", "value": 50, "unit": "%"}, {"measurement": "increased RGC survival upon H2O2 treatment compared to control", "setting": "primary mouse RGC [2]", "value": 18, "unit": "%"}, {"measurement": "synapse formation", "setting": "primary RGC; RGC", "value": "promoted synapse formation"}, {"measurement": "synaptic vesicle marker synaptophysin in axons and neurites", "setting": "primary RGC", "value": "also express synaptic vesicle marker synaptophysin"}, {"measurement": "average axon length per RGC", "setting": "primary mouse RGC [3]", "value": "significantly increases"}, {"measurement": "average number of neurites per RGC", "setting": "primary mouse RGC [3]", "value": "significantly increases"}, {"measurement": "percentage of RGC with axons longer than 3× cell body length", "setting": "primary mouse RGC [3]", "value": "significantly increases"}]}, {"molecule": "B3", "values": [{"measurement": "VEGFR2 activation by levels of VEGFR2 phosphorylation (p-VEGFR2)", "setting": "VEGFR2", "value": "can sustain VEGFR2 activation in a cell autonomous fashion"}, {"measurement": "RGC survival", "setting": "primary mouse RGC [1]", "value": 45, "unit": "%"}, {"measurement": "intracellular [Ca2+]", "setting": "RGC", "value": "decreased"}, {"measurement": "genes involved in apoptosis and cell death (bax/bcl2 ratio) and inhibition of axon formation (Tsc1)", "setting": "primary mouse RGC [5]", "value": "down-regulation"}, {"measurement": "genes involved in axon growth (KLF7), neurogenesis (Microtubule-associated protein 1B) and synaptic vesicle trafficking (vesicle-associated membrane protein 3)", "setting": "primary mouse RGC [5]", "value": "up-regulation"}, {"measurement": "increased RGC survival upon H2O2 treatment compared to control", "setting": "primary mouse RGC [2]", "value": 10, "unit": "%"}, {"measurement": "synaptic vesicle marker synaptophysin in axons and neurites", "setting": "primary RGC", "value": "also express synaptic vesicle marker synaptophysin"}, {"measurement": "average number of branch points of neurite per RGC", "setting": "primary mouse RGC [3]", "value": "significantly increase"}, {"measurement": "average axon length per RGC", "setting": "primary mouse RGC [3]", "value": "significantly increases"}, {"measurement": "average number of neurites per RGC", "setting": "primary mouse RGC [3]", "value": "significantly increases"}, {"measurement": "percentage of RGC with axons longer than 3× cell body length", "setting": "primary mouse RGC [3]", "value": "significantly increases"}, {"measurement": "length of extra long axons", "setting": "primary mouse RGC [3]; some of the overexpressing primary RGC, correlative fluorescence and electron microscopy", "value": "> 1400", "unit": "μm"}]}]}
